This is an account of results in patent publication US20040234998A1.

Common to all, as to test: cell-based or functional assay
In test [1] the target is 980601 (BX): Purified preparation of Danisco's new bacterial xylanase expressed in E. coli (Bacillus subtilis) (UniProt P18429).
Test [2] deals with 980603 (Röhm): Purified preparation of Frimond's Belase xylanase (identical to Röhm's) (Bacillus subtilis).
Test [3] has as its target 980903 (XM1): Purified mutant of Bacillus sub. wild type xylanase expressed in E. coli.

As to “endogenous endo-β-1,4-xylanase inhibitor from wheat flour”, in test [1], the Difference, % (average rest activity of 980601 against 980603) is 25.6%; the Inhibation, % (flour 98002) is 67%; the Inhibation, % (flour 98026) was determined as 75%; the OD 590 (+inhibitor), xylanase activity on Xylazyme was 0.165 OD 590. In test [1], this substance yielded a Residual activity, % of 24.4%; a Rest act., % (Avg) of 29%; a Rest act., % (flour 98002) of 33%; a Rest act., % (flour 98026) of 25%. Further, in test [1], the Vmax (Lineweaver-Burk plot, relative OD 590, with and without inhibitor) (relative OD 590) worked out at 1.19. For the same substance, in test [2], the Inhibation, % (flour 98002) is 60.8%; the Inhibation, % (flour 98026) turned out to be 61.3%; the Rest act., % (Avg) stood at 39%; the Rest act., % (flour 98002) came out at 39.2%. In addition, the Rest act., % (flour 98026) in test [2] was determined as 38.7%. Also, in test [3], the difference in inhibition between XM1 and XM2 turned out to be 250%; the residual activity of XM1 relative to rest activity of XM2 stood at 2.5 times.
